Reference: article doi:10.1101/318345, “Three enzymes and one substrate; regulation of flux through the glyoxylate shunt in the opportunistic pathogen, Pseudomonas aeruginosa” (bioRxiv, 2018)

B1: Pseudomonas aeruginosa isocitrate lyase (ICL, PA2634) (enzyme, Pseudomonas aeruginosa strain PAO1, UniProt Q9I0K4 1-531, looked up)
chain: MSAYQNEIKAVAALKEKNGSSWSAINPEYAARMRIQNRFKTGLDIAKYTAAIMRKDMAEYDADSSVYTQSLGCWHGFIGQQKLISIKKHLKTTNKRYLYLSGWMVAALRSDFGPLPDQSMHEKTAVSGLIEELYTFLRQADARELDLLFTGLDAARAAGDKAKEAELLAQIDNFETHVVPIIADIDAGFGNAEATYLLAKKMIEAGACCIQIENQVSDEKQCGHQDGKVTVPHIDFLAKINAVRYAFLELGVDDGVIVARTDSLGAGLTKQIAVTNEPGDLGDLYNSFLDCEEISESELGNGDVVIKREGKLLRPKRLASNLFQFRKGTGEDRCVLDCITSLQNGADLLWIETEKPHVGQIKAMVDRIREVIPNAKLVYNNSPSFNWTLNFRQQVFDAFVAEGKDVSAYDRNKLMSVEYDDTELAKVADEKIRTFQRDGSAHAGIFHHLITLPTYHTAALSTDNLAKGYFADEGMLAYVKGVQRQELRQGIACVKHQNMAGSDIGDNHKEYFAGEAALKASGKDNTMNQFH
notes: isocitrate lyase (ICL), ORF PA2634 of Pseudomonas aeruginosa strain PAO1, 531 amino acids; The ORF was cloned into a pMAL-c2X derivative with a hexa-histidine tag on the N-terminus of MBP; The His6-MBP tag was cut off with Factor Xa; Crystallised with Ca2+ and glyoxylate; also called P. aeruginosa ICL; source: E. coli DH5α, purified (amylose resin, Factor Xa cleavage, Ni-NTA flow through); not …
B2: Pseudomonas aeruginosa isocitrate dehydrogenase ICD (PA2623) (enzyme, Pseudomonas aeruginosa strain PAO1, UniProt Q02NB5 1-418, looked up)
chain: MGYQKIQVPATGDKITVNADMSLSVPKNPIIPFIEGDGIGVDISPVMIKVVDAAVEKAYKGERKIAWMEVYAGEKATQVYDQDTWLPQETLDAVRDYVVSIKGPLTTPVGGGIRSLNVALRQQLDLYVCQRPVRWFEGVPSPVKKPGDVDMVIFRENSEDIYAGVEWKAGSPEAEKVIKFLTEEMGVKKIRFTENCGIGIKPVSQEGTKRLVRKALQYAVDNDRSSVTLVHKGNIMKFTEGAFKDWGYEVARDEFGAELLDGGPWMQFKNPKTGKNVVVKDVIADAMLQQILLRPAEYDVIATLNLNGDYLSDALAAEVGGIGIAPGANLSDSVAMFEATHGTAPKYAGQDKVNPGSLILSAEMMLRHMGWTEAADLIIKGTNGAIAAKTVTYDFERLMDGATLLSCSEFGDAMIAKM
notes: isocitrate dehydrogenase ICD, ORF PA2623 of Pseudomonas aeruginosa strain PAO1, calculated molecular mass 45 kDa; The ORF was cloned into a pMAL-c2X derivative with a hexa-histidine tag on the N-terminus of MBP; The His6-MBP tag was cut off with Factor Xa; also called P. aeruginosa ICD; source: E. coli DH5α, purified (amylose resin, Factor Xa cleavage, Ni-NTA flow through); not shown: His6, …

Molecular target: the molecule itself
Assay: SEC-MALS; TSK-Gel G3000 SWXL column, 150 mM NaCl, 20 mM Tris-HCl (pH 8.0), 0.5 mL/min, Mini-DAWN light scattering detector

Protein | stoichiometry N
B1 | 4
B2 | 2
